Measured values from patent publication US20220025025A1 (IBEX BIOSCIENCES, published 2022).

Target: T1, filamin-A (human, UniProt P21333 2-2647)
T1 construct: whole, on cells; Endogenous filamin-A of human cell lines; No purified filamin-A was used; also called FLNA; FLNa
Test: flow cytometry, surface staining of SKNAS (human neuroblastoma) cells, 2 µg primary antibody
Protocol: B411 surface staining on several different cell types was conducted. Cells were plated at a concentration of 0.5-1.0 million cells per well, and incubated overnight. Cells were then lifted from the wells, washed, and resuspended in flow cytometry media with 2 μg of primary antibody for 1 hour on ice. Cells were washed and incubated with the secondary antibody (5 μg/ml) for 30 minutes on ice. Cells were washed again and analyzed by flow cytometry.

T1 sequence (P21333 2-2647): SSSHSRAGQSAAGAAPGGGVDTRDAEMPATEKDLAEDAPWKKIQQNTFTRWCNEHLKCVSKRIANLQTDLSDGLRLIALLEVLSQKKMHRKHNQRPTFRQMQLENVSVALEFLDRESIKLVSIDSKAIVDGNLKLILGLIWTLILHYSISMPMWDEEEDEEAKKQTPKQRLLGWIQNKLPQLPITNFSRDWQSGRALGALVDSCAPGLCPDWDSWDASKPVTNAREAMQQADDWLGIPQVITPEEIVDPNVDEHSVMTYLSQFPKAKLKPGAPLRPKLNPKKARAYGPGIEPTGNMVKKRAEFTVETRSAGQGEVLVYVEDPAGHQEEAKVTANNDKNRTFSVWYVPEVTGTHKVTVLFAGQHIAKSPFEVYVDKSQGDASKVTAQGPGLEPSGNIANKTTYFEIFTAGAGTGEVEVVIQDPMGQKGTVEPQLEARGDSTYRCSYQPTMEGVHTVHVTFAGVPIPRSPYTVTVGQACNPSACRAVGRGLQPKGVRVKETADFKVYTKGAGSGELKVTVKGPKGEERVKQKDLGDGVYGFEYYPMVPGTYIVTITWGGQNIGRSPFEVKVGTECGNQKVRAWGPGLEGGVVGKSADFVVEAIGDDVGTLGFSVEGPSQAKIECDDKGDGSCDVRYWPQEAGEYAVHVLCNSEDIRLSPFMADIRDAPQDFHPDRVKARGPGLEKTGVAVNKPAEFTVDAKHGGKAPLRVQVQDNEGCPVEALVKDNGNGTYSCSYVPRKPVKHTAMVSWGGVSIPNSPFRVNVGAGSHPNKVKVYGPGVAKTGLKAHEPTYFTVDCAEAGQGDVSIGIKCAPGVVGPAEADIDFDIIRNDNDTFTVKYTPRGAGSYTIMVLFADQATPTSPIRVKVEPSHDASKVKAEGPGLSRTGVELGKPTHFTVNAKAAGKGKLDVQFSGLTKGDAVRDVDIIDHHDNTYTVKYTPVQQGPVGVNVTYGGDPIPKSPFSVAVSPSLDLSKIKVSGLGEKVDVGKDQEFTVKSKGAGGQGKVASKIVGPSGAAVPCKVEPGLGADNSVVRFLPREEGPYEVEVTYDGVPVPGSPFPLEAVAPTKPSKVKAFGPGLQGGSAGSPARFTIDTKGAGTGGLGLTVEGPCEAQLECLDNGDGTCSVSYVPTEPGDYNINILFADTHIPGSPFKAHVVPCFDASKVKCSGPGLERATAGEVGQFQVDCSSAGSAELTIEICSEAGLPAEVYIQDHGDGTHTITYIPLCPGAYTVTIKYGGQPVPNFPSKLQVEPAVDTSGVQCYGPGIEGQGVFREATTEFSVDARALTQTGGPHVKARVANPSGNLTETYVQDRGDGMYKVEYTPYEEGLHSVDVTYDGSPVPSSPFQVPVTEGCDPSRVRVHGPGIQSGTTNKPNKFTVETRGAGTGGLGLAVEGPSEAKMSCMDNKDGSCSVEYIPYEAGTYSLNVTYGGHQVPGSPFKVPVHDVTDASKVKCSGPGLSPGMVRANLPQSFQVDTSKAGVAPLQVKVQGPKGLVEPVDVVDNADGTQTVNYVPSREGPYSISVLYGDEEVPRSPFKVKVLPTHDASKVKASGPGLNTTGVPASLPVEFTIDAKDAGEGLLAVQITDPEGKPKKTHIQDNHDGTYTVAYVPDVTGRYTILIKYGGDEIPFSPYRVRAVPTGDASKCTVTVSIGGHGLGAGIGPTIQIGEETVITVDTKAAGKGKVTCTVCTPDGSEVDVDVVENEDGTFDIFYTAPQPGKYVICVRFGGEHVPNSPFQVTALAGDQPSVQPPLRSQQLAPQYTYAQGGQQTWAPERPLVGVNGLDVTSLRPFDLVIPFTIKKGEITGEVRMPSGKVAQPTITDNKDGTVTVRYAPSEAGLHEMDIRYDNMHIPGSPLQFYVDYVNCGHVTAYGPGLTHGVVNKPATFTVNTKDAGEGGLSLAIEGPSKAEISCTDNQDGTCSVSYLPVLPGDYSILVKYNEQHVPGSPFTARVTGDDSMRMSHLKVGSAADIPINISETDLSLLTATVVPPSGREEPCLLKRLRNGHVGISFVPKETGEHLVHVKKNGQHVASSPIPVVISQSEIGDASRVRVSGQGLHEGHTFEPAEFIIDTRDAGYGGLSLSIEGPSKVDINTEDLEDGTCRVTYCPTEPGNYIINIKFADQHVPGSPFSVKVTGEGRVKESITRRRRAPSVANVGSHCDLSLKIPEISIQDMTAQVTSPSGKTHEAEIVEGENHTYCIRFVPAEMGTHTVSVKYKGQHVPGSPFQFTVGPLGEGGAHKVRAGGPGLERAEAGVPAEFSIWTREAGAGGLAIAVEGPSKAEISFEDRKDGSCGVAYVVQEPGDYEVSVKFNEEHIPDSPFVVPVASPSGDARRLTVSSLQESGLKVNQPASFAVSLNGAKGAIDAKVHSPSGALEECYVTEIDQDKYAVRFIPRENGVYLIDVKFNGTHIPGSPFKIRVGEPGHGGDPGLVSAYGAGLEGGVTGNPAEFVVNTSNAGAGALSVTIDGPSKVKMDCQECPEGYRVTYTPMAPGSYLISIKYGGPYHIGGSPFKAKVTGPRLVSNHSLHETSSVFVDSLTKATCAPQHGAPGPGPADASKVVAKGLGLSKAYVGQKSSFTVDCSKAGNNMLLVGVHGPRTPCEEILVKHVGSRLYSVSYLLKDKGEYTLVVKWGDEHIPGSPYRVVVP

B1: anti-filamin-A antibody B411 (antibody, human IgG1, kappa, V domains shown)
VH: EVKLVESGGGLVQPGGSLKLSCAASGFTFSSYTMSWVRQTPEKRLEWVAYISNGGGSTYYPDTVKGRFTISRDNAKNTLYLQMSSLKSEDTAMYYCASDGIIRPFAYWGQGTLVTVSA
VL: DIVMTQSHKFMSTSVGDRVSITCKASQDVSLDVAWYQQKPGQSPKLLIYSASHRYTGVPDRFTGSGSGTDFTFTISGVQAEDLAVYFCQQHYSTPLTFGAGTKLELKR
notes: also called B4111
binding result: binds
